Assay results from the nanobody polyreactivity screen of Harvey et al. (2022).

test: yeast display, Sf9 membrane polyspecificity reagent, FACS + sequencing; frameworks hold sequencing errors
In short: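 Nanobodies came from a synthetic yeast display library in Saccharomyces cerevisiae BJ5465, induced with galactose for 36–48 hours and stained for 1 hour at 4 °C with 10% biotinylated, detergent-solubilized Sf9 membrane reagent. Cells were enriched on streptavidin microbeads and then FACS-sorted, with low and high (top ~1%) gates set on anti-HA fluorescence for expression and streptavidin fluorescence for reagent binding. Each polyreactivity label reflects the gate a clone came from. Genes were amplified by colony PCR, sequenced by MiSeq 2 × 250 and filtered by CDR length.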

Row | Sequence | polyreactivity (PSR sort gate)
1 | QVQLVESGGGLVQAGGSLRLSCAASGRIFVRYARGWYSQAPGKERELVAAITSGGRTSYADSVKGRFTISRDNAKNTVYLQMNSLKPEDTAVYYWNVVSRNSIRFDYWGQGTQVTVSS | high polyreactivity
2 | QVQLVESGGGLVQAGGSLRLSCAASGRIFVRYTMGWYRQAPGKERELVAAITKRGGSTYYADSVKGRFTISRDNAKNTVYLQMNSLKPEDTAVYYCATDGLGYNRPQDEYWGLGTQVTVSS | high polyreactivity
3 | QVQLVESGGGLVQAGGSLRLSCAASGRIFVSNAMGWYRLAPGKERELVATISRSGGNTYYADSVKGRFTISRDNAKNTVYLQMNSLKPEYTAVYYSNSVSRRSYVKYDYWRQGTQVTVSS | high polyreactivity
4 | QVQLVESGGGLVQAGGSLRLSCAASGRIFVSNTMGWYRQAPGKERELVAVIRTDSGSTYYADSVKGRFTISRDNAKNTVYLQMNSLKPEDTAVYYCAKVAYFASYRTGFYYWGQGTQVTVSS | high polyreactivity
5 | QVQLVESGGGLVQAGGSLRLSCAASGRIFVSNVRGWYRQAPGKERELVAAIDKSGGSTYYADSVKGRFTISRDNAKNSVYLQMNSLKPEDTAVYYCAATSYRQPYRYYYWGQGTQVTVSS | high polyreactivity
6 | QVQLVESGGGLVQAGGSLRLSCAASGRIFVSYAMGWYRQAPGKERELVAAISRGGSTYYADSVKGRFTISRDNAKNTVYLQMNSLKPEDTAVYYCAARPSYRYGYWGQGTQVTVSS | high polyreactivity
7 | QVQLVESGGGLVQAGGSLRLSCAASGRIFVSYAMGWYRQAPGKERELVATINIGSDTYYADSVKGRFTISRDNAKNTVYLQMNSLKPEDTAVYYCAKDYYEGDSYPYPGYEYWGQGTQVTVSS | low polyreactivity
8 | QVQLVESGGGLVQAGGSLRLSCAASGRIFVTYAMGWYRQEPGKERELVAAISASGGSTYSADSVKGRFTISRDNAKNTVYLQMNSLKPEDTAVYYCAASYRSSLRPWAEDGFWGQGTQVTVSS | high polyreactivity
9 | QVQLVESGGGLVQAGGSLRLSCAASGRIFVVNAMGWYRQAPGKERELVAAISRSGGSTYYADSVKGRFTISRDNAKNTVYLQMNSLKPEETAVYFCAAVSWIYSFSAMSIYDYWGQGTQVTVSS | high polyreactivity
10 | QVQLVESGGGLVQAGGSLRLSCAASGRIFVVNAMGWYRQAPGKERELVAAITRRGGSTYADSVKGRFTISRDNAKNTVYLQMNSLKPEDTAVYYCNAESYSGIFSYKYDYWGQGTQVTVSS | high polyreactivity
11 | QVQLVESGGGLVQAGGSLRLSCAASGRIFVYNAMGWYRQAPGKEREFVATITSSGGRTYYADSVKGRFTISRDNAKNTVYLQMNSLKPEDTAVYYCAARPQNNGRNPVYRYNYWGQGTQVTVSS | high polyreactivity
12 | QVQLVESGGGLVQAGGSLRLSCAASGRIFVYNAMGWYRQAPGKERELVAAITSGGSTYYADSVKGRFTISRDNAKNTVYLQMNSLKPEDTAVYYCAATYFSYTYSRYDYWGQGTQVTVSS | high polyreactivity
13 | QVQLVESGGGLVQAGGSLRLSCAASGRIFVYNAMGWYRQAPGKERELVAGINGSGGSTYYAASVKGRFRISRDHAKNSVYLQMNSLKPEDTAGYYCNAWISYGYFIFDYWGQGTQVTVSS | high polyreactivity
14 | QVQLVESGGGLVQAGGSLRLSCAASGRIFVYNAMGWYRQAPGKERELVASISWSGDSTYADSVKGRFTISRDNAKNTVYLQMNSLKPEDTAVYYCAADNGSKEFDYWGQGTQVTVSS | low polyreactivity
15 | QVQLVESGGGLVQAGGSLRLSCAASGRIFVYYAMGWYRPAPGKERELVATITETGGSTYYADSVKGRFTISRDNAKNTVYLQMNSLKPEDSAVYYCNADYWGTYGWDWYWYVYWGQGTQVTVSS | low polyreactivity
16 | QVQLVESGGGLVQAGGSLRLSCAASGRIFVYYAMGWYRPAPWKERELVAVITSGGITYYADSVKGRFTISRDNAKNTVYLQMNSLKPEDTAVYYCAARGHQYDPGSSGKKYYYWGQGTQVTVSS | high polyreactivity
17 | QVQLVESGGGLVQAGGSLRLSCAASGRIFVYYAMGWYRQAPGKERELVAAISSGGDRTYYADSVKGRFTISRDNAKNTVYLQMNCLKPEDTAVYYCAKVYSTVKRYHWVGSRYDYWGQGTQVTVSS | high polyreactivity
18 | QVQLVESGGGLVQAGGSLRLSCAASGRIFVYYAMGWYRQAPGKERELVASISYSGASTYYADSVKGRFTISRDNAKNTVYLQMNSLKPEDTAVYYCATDVRGVDGEDDYWGQGTQVTVSS | low polyreactivity
19 | QVQLVESGGGLVQAGGSLRLSCAASGRIFWDNAMGWYRQAPGKERELVAAISGSGGNTYYADSVKGRFTISRDNAKNTVYLQMNSLKPEDTAVYYCNAYGHYTKRYRYGGWFDYWGQGTQVTVSS | low polyreactivity
20 | QVQLVESGGGLVQAGGSLRLSCAASGRIFWDNAMGWYRQAPGKERELVAAITFSGGSTYYADSVKGRFTISRDNAKNTVYLQMNSLKPEDTAVYYCAKGEWVYWRPWYEYWGQGTQVTVSS | low polyreactivity
21 | QVQLVESGGGLVQAGGSLRLSCAASGRIFWDYAMGWYRQAPGKERELVAVITFSGDSTYYADSVKGRFTISRDNAKHTVYIQMNSLKPEDTAVYYCAAARAIRQFWYVATFEYWGQGTLVTVSS | low polyreactivity
22 | QVQLVESGGGLVQAGGSLRLSCAASGRIFWEYAMGWYRQAPGKERELVAAITWRVGSTYYADSVKGRFTISRDNAKNTVYLQMNSLKPEDTAVYYCAAARYLSIYNYWGQGTQVTVSS | low polyreactivity

Row | Sequence | polyreactivity (PSR sort gate)
23 | QVQLVESGGGLVQAGGSLRLSCAASGRIFWGNAMGWYRQAPGKERELVAAITSGDGTNYADSVKGRFTISRDNAKNTVYLQMNSLKPEDTAVYYCSYYYWGQGTQVTVSS | low polyreactivity
24 | QVQLVESGGGLVQAGGSLRLSCAASGRIFWGYAMGWYRQAPGKERELVAGITTGGSTKYADSVKGRFTISRDNAKNTVYLQMNSLKPEDTAVYYCAATGKWYHFYHYGYWGQGTQVTVSS | low polyreactivity
25 | QVQLVESGGGLVQAGGSLRLSCAASGRIFWGYAMGWYRQAPGKERELVAGITTGGSTKYADSVKGRFTISRDNAKNTVYLQMNSLKPVDTAVYYCAADDQYGYVYYAFWGYDYWGQGTQVTVSS | low polyreactivity
26 | QVQLVESGGGLVQAGGSLRLSCAASGRIFWGYAMGWYRQAPGKEREVVAAISWSGGSTYYADSVKGRFTISRDNAKNTVYLQMNSLKPEDTAVYYCAALRFQSYNYWGQGTQVTVSS | high polyreactivity
27 | QVQLVESGGGLVQAGGSLRLSCAASGRIFWINAMGWYRQAPGKERELVAAISSGGGTHYADSVKGRFTISRDNAKNTVYLQMNSLKPEDTAVSYCARRYQRKKPVFPHYQGAYDYWGQGTQVTVSS | low polyreactivity
28 | QVQLVESGGGLVQAGGSLRLSCAASGRIFWNYAMGWYREAPGKERELVASINWSGGSTYSADSVKGRFTISRDNAKNTVYLQMNSLKPEDTAVYYCNQDGRVYLDHDYWGQGTQVTVSS | low polyreactivity
29 | QVQLVESGGGLVQAGGSLRLSCAASGRIFWRNTMGWYRQAPGKERELVAAITRTGGSTYYADSVKGRFTISRDNAKNTVYLQMNSLKPEDTAVYYCAVYARWYGYGYGYWGQGTQVTVSS | high polyreactivity
30 | QVQLVESGGGLVQAGGSLRLSCAASGRIFWSNAMGWYRQAPGKERELVAAITWRGGSTYADSVKGRFTISRDNAKNTVYLQMNSLKPEDTAVYYCAASPSGWRYDYWGQGTQVTVSS | high polyreactivity
31 | QVQLVESGGGLVQAGGSLRLSCAASGRIFWSYAMGWYRQAPGKERELVAAIRSGGTTDYADAVKGRFTISRDNAKYTVYLQMNSLKPEDTADYYCNREYRGAINYIYYYWGQGTQVTVSS | low polyreactivity
32 | QVQLVESGGGLVQAGGSLRLSCAASGRIFWVYAMGWYRQAPGKERELVAAIDWSDGITYYADSVKGRFTISRDNAKNTVYLQMNSLKPEDTAVYYCAAESVIYQTYNYWGQGTQVTVSS | high polyreactivity
33 | QVQLVESGGGLVQAGGSLRLSCAASGRIFWVYTMGWYRQAPGKERELVAAITSADSTNYADSVKGRFTISRDNAKNTVYLQMNSLKAEDTAVYYCAARLARDQVREWDERYYYWGQGTQVTVSS | low polyreactivity
34 | QVQLVESGGGLVQAGGSLRLSCAASGRIFWVYVMGWYRQAPGKERELVADITSIGGSTYYADSVKGRFTISRDNAKNTVDLQMNSLKPEDTAVYYCAAARRPTYCPVYPYFGYEYWGQGTQVTVSS | low polyreactivity
35 | QVQLVESGGGLVQAGGSLRLSCAASGRIFWWYAMGWYRQAPGKERELVAVIDDSGGITYYADSVKGRFTISRDNAKHTVYLQMNSLKPEDTAVYYCARNVNAQKVLGGFDSWGQGTQVTVSS | low polyreactivity
36 | QVQLVESGGGLVQAGGSLRLSCAASGRIFWWYVMGWYRQAPGKERELVAAITRSGVSTYYADSVKGRFTLSRDNAKNTVYLQINSLKPEDTAVYYCNVGPWPRSYAHRGYWGQVTQVTVSS | high polyreactivity
37 | QVQLVESGGGLVQAGGSLRLSCAASGRIFWYNAMGWYRQAPGKERELVAAISSGGSTSYADSVKGRFTISRDNAKNTVYLQMNSLKPEDTAVYYCAKDDERKQGQYPPYDSWGQGTQVTVSS | low polyreactivity
38 | QVQLVESGGGLVQAGGSLRLSCAASGRIFWYVLGWYRQAPGNERELVATITSSGGSSYYADSVKGRFTISRDNAKNTVYLQMNSLKPEDTAVNYCAVDLQTLGADRIITVYVGEDYWGQGTQVTVSS | low polyreactivity
39 | QVQLVESGGGLVQAGGSLRLSCAASGRIFWYYAMGWYRPAPGKERELVATISYGGGNTYYADSVKGRFTISRDNAKNTVYLQMNSLKPEDTAVYYCARVPYAYLPYKPFQQYSYDYWGQGTQVTVSS | high polyreactivity
40 | QVQLVESGGGLVQAGGSLRLSCAASGRIFWYYAMGWYRQAPGKERELVAAITSGGSTNYADSVKGRFTISRDNEKNTVYLQMNSLKQEDTAVYYCNARWPYSGMNYWGQGTQVTVSS | high polyreactivity
41 | QVQLVESGGGLVQAGGSLRLSCAASGRIFWYYAMGWYRQAPGKERELVATISYVGGNTYYADSVKGRFTISRDNAKNTVYLQMNSLKPDDTAVYYCARVPYAYLPYKPFQQYSYDYWGQGTQVTVSS | high polyreactivity
42 | QVQLVESGGGLVQAGGSLRLSCAASGRIFWYYPMGGYRQAPGKEREYVATINTSGGSTYYADSVKGRFTISRDNAKNTVYLQMNRLKPEDTAVYYCNAAYRFYRTEYYSWGQGTQVTVSS | low polyreactivity
43 | QVQLVESGGGLVQAGGSLRLSCAASGRIFWYYTMGWYRQAPGKERELVAAISRGGSTYYADSVKGRFTISRDNAKNTVYLQMNSLKPEDTAVYYCAAQESWKIYDYWGQGTQVTVSS | low polyreactivity
